Laboratory results: paper PMC10266979

Experiments:
[1] = target: Recombinant neuraminidase (N2) from H3N2 A/Tanzania/205/2010 (influenza A virus H3N2 A/Tanzania/205/2010); assay: cryo-EM structure
[2] = target: Recombinant neuraminidase (N2) from H3N2 A/Tanzania/205/2010 with S245N and S247T mutations (influenza A virus H3N2 A/Tanzania/205/2010); assay: cryo-EM structure

| Substance | stoichiometry N [1] | stoichiometry N [2] |
| --- | --- | --- |
| Recombinant neuraminidase (N2) from H3N2 A/Tanzania/205/2010 (enzyme) | 4 |  |
| Recombinant neuraminidase (N2) from H3N2 A/Tanzania/205/2010 with S245N and S247T mutations (enzyme) |  | 4 |
